# According to publication PMC4238996 (PLoS Neglected Tropical Diseases, 2014):
# B1: unnamed (parent)
# chain 1: MQQPTEHTTPMDSLAPPALVIKTPHQAFTAHAAQGPVVIGRDAPAQVRIPDERISRAHVRVTYTSTGWVAVDMSSNGTFVNGVQQATIPITDGLTIHLGHPLEGIAISFSYTIAPPLAVDDATEHIEDTSDPKMVRVGAEIAARREELGLPKRELDRRGVVGQATMTDIEKGRRFPRPFTRDKIEAVLGWPRGHIMWLYEQDIQPDEERTHVLTATTPVPEITGATKMALKGFTAAADSLPPEDDPAFTDRVGALLADLRELESVAASATHSAHGTSAAALVLSDVRKLYKALMLRAAGAPGATLGQRFYAARYRAELTTQDAAAAAGLPVAIIEAAEADAPLDPAATAAVQALLTSLLSQR
# chain 2: MALPLGTVVAGYVIEGVLGSGGMGTVYLARHPTLPRSDALKILSAELSQDEQFRVRFIREADLAATLSHPNIVTVFNRGETDDGQLWIAMQYVEGTTASDLHATVLTPARVAAIITDVGAALDYAHSRRVLHRDIKPSNFLVSADHERVLLADFGIARAFDDTTLTAIGSLVGTASYAAPEAIQGGSVDQRADVYSLGCALFRLLTGRAPYEDLRGPAMLMAHVLQPIPRPSHIVVGLPPAIDDVIAVAMAKDPAARFPTAGALAGAARAALSGQPLPQAPPGGPKTRIWAAPPLSYPTTRPPGISGGAISPAGFAGAAHPGLAGAASSSDERGGPRAPRRRKR
# Variants of: B1
# Experiment: sandwich ELISA
# Conditions: with partner chain of the complex shown; His6-PknQ adsorbed on a 96-well plate; equimolar amounts of GST-tagged substrates; parent: 2; read off a plot
row,Variant,response [O.D. 490 nm]
1,chain 1 MQQPTEHTTPMDSLAPPALVIKTPHQAFTAHAAQGPVVIGADAPAQVRIPDERISRAHVRVTYTSTGWVAVDMSSNGTFVNGVQQATIPITDGLTIHLGHPLEGIAISFSYTIAPPLAVDDATEHIEDTSDPKMVRVGAEIAARREELGLPKRELDRRGVVGQATMTDIEKGRRFPRPFTRDKIEAVLGWPRGHIMWLYEQDIQPDEERTHVLTATTPVPEITGATKMALKGFTAAADSLPPEDDPAFTDRVGALLADLRELESVAASATHSAHGTSAAALVLSDVRKLYKALMLRAAGAPGATLGQRFYAARYRAELTTQDAAAAAGLPVAIIEAAEADAPLDPAATAAVQALLTSLLSQR [chain 1 R41A],0.95
2,chain 1 MQQPTEHTTPMDSLAPPALVIKTPHQAFTAHAAQGPVVIGRDAPAQVRIPDERIARAHVRVTYTSTGWVAVDMSSNGTFVNGVQQATIPITDGLTIHLGHPLEGIAISFSYTIAPPLAVDDATEHIEDTSDPKMVRVGAEIAARREELGLPKRELDRRGVVGQATMTDIEKGRRFPRPFTRDKIEAVLGWPRGHIMWLYEQDIQPDEERTHVLTATTPVPEITGATKMALKGFTAAADSLPPEDDPAFTDRVGALLADLRELESVAASATHSAHGTSAAALVLSDVRKLYKALMLRAAGAPGATLGQRFYAARYRAELTTQDAAAAAGLPVAIIEAAEADAPLDPAATAAVQALLTSLLSQR [chain 1 S55A],0.38

# Variants of: B1
# Experiment: ELISA
# Conditions: with partner chain of the complex shown; read at the highest MupFHA concentration point, x about 2320 µM; parent: 1; read off a plot
row,Variant,response [O.D. 490 nm]
1,chain 2 MALPLGTVVAGYVIEGVLGSGGMGTVYLARHPTLPRSDALKILSAELSQDEQFRVRFIREADLAATLSHPNIVTVFNRGETDDGQLWIAMQYVEGTTASDLHATVLTPARVAAIITDVGAALDYAHSRRVLHRDIKPSNFLVSADHERVLLADFGIARAFDDTTLTAIGSLVGTASYAAPEAIQGGSVDQRADVYSLGCALFRLLTGRAPYEDLRGPAMLMAHVLQPIPRPSHIVVGLPPAIDDVIAVAMAKDPAARFPAAGALAGAARAALSGQPLPQAPPGGPKTRIWAAPPLSYPTTRPPGISGGAISPAGFAGAAHPGLAGAASSSDERGGPRAPRRRKR [chain 2 T260A],1
2,chain 2 MALPLGTVVAGYVIEGVLGSGGMGTVYLARHPTLPRSDALKILSAELSQDEQFRVRFIREADLAATLSHPNIVTVFNRGETDDGQLWIAMQYVEGTTASDLHATVLTPARVAAIITDVGAALDYAHSRRVLHRDIKPSNFLVSADHERVLLADFGIARAFDDTTLTAIGSLVGAASYAAPEAIQGGSVDQRADVYSLGCALFRLLTGRAPYEDLRGPAMLMAHVLQPIPRPSHIVVGLPPAIDDVIAVAMAKDPAARFPTAGALAGAARAALSGQPLPQAPPGGPKTRIWAAPPLSYPTTRPPGISGGAISPAGFAGAAHPGLAGAASSSDERGGPRAPRRRKR [chain 2 T174A],0.58
3,chain 2 MALPLGTVVAGYVIEGVLGSGGMGTVYLARHPTLPRSDALKILSAELSQDEQFRVRFIREADLAATLSHPNIVTVFNRGETDDGQLWIAMQYVEGTTASDLHATVLTPARVAAIITDVGAALDYAHSRRVLHRDIKPSNFLVSADHERVLLADFGIARAFDDTTLTAIGALVGTASYAAPEAIQGGSVDQRADVYSLGCALFRLLTGRAPYEDLRGPAMLMAHVLQPIPRPSHIVVGLPPAIDDVIAVAMAKDPAARFPTAGALAGAARAALSGQPLPQAPPGGPKTRIWAAPPLSYPTTRPPGISGGAISPAGFAGAAHPGLAGAASSSDERGGPRAPRRRKR [chain 2 S170A],0.43

# Same assay, conditions: with partner chain of the complex shown; read at the highest MupFHA concentration point, x about 1160 µM; parent: 1.6; read off a plot
row,Variant,response [O.D. 490 nm]
1,chain 2 MALPLGTVVAGYVIEGVLGSGGMGTVYLARHPTLPRSDALKILSAELSQDEQFRVRFIREADLAATLSHPNIVTVFNRGETDDGQLWIAMQYVEGTTASDLHATVLTPARVAAIITDVGAALDYAHSRRVLHRDIKPSNFLVSADHERVLLADFGIARAFDDTTLAAIGSLVGTASYAAPEAIQGGSVDQRADVYSLGCALFRLLTGRAPYEDLRGPAMLMAHVLQPIPRPSHIVVGLPPAIDDVIAVAMAKDPAARFPTAGALAGAARAALSGQPLPQAPPGGPKTRIWAAPPLSYPTTRPPGISGGAISPAGFAGAAHPGLAGAASSSDERGGPRAPRRRKR [chain 2 T166A],1.5
2,chain 2 MALPLGTVVAGYVIEGVLGSGGMGTVYLARHPTLPRSDALMILSAELSQDEQFRVRFIREADLAATLSHPNIVTVFNRGETDDGQLWIAMQYVEGTTASDLHATVLTPARVAAIITDVGAALDYAHSRRVLHRDIKPSNFLVSADHERVLLADFGIARAFDDTTLTAIGSLVGTASYAAPEAIQGGSVDQRADVYSLGCALFRLLTGRAPYEDLRGPAMLMAHVLQPIPRPSHIVVGLPPAIDDVIAVAMAKDPAARFPTAGALAGAARAALSGQPLPQAPPGGPKTRIWAAPPLSYPTTRPPGISGGAISPAGFAGAAHPGLAGAASSSDERGGPRAPRRRKR [chain 2 K41M],0.26
3,chain 2 MALPLGTVVAGYVIEGVLGSGGMGTVYLARHPTLPRSDALKILSAELSQDEQFRVRFIREADLAATLSHPNIVTVFNRGETDDGQLWIAMQYVEGTTASDLHATVLTPARVAAIITDVGAALDYAHSRRVLHRDIKPSNFLVSADHERVLLADFGIARAFDDTTLTAIGALVGTASYAAPEAIQGGSVDQRADVYSLGCALFRLLTGRAPYEDLRGPAMLMAHVLQPIPRPSHIVVGLPPAIDDVIAVAMAKDPAARFPTAGALAGAARAALSGQPLPQAPPGGPKTRIWAAPPLSYPTTRPPGISGGAISPAGFAGAAHPGLAGAASSSDERGGPRAPRRRKR [chain 2 S170A],0.21
